Key:
Test in all cases: co-IP; LUMIER in HEK293TN cells: Prot-A fusion co-transfected with Renilla luciferase fusion (AN always the luciferase fusion with the interactors); luciferase activity before (input) and after pulldown; percentage pulldown = pulldown/input x 100; empty vectors as negative control; positive if more than two times the background
Details in all cases: partners not purified
[1] = target: T1, TANDEM CCCH ZINC FINGER (TZF) ATC3H14, Prot-A fusion (Arabidopsis thaliana, UniProt Q9C9N3 1-310)
T1 construct: Tandem CCCH zinc finger protein ATC3H14, Arabidopsis thaliana, AT1G66810; CDS amplified from Col-0 cDNA; source: HEK293TN cells, transfected; not shown: Protein A (Staphylococcus aureus), N-terminal, kept
T1 sequence (looked up): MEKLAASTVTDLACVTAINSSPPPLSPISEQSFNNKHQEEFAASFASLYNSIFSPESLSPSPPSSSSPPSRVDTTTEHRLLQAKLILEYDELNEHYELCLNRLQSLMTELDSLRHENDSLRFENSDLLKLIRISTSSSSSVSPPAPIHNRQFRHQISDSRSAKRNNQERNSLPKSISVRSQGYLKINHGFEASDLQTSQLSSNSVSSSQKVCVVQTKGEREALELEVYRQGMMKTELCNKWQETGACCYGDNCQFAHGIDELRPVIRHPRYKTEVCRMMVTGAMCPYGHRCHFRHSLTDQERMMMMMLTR

[2] = target: T2, TANDEM ZINC FINGER 3 (TZF3), Prot-A fusion (Arabidopsis thaliana, UniProt Q9M0G2 1-356)
T2 construct: Tandem zinc finger 3, Arabidopsis thaliana, AT4G29190; CDS amplified from Col-0 cDNA; source: HEK293TN cells, transfected; not shown: Protein A (Staphylococcus aureus), N-terminal, kept
T2 sequence (looked up): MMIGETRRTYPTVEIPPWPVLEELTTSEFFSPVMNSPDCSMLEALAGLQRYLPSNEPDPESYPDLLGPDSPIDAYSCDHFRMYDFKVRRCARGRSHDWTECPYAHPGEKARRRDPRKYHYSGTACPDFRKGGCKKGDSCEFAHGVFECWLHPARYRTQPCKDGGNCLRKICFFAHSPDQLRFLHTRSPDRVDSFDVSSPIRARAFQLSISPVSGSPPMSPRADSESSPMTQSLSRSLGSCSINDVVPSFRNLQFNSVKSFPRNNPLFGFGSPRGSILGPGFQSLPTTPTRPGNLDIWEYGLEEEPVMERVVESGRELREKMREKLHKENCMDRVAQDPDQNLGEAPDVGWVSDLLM

[3] = target: T3, PROTEIN MEI2-LIKE 5 (ATML5), Prot-A fusion (Arabidopsis thaliana, UniProt Q8VWF5 1-800)
T3 construct: Protein MEI2-like 5, Arabidopsis thaliana, AT1G29400; CDS amplified from Col-0 cDNA; source: HEK293TN cells, transfected; not shown: Protein A (Staphylococcus aureus), N-terminal, kept
T3 sequence (looked up): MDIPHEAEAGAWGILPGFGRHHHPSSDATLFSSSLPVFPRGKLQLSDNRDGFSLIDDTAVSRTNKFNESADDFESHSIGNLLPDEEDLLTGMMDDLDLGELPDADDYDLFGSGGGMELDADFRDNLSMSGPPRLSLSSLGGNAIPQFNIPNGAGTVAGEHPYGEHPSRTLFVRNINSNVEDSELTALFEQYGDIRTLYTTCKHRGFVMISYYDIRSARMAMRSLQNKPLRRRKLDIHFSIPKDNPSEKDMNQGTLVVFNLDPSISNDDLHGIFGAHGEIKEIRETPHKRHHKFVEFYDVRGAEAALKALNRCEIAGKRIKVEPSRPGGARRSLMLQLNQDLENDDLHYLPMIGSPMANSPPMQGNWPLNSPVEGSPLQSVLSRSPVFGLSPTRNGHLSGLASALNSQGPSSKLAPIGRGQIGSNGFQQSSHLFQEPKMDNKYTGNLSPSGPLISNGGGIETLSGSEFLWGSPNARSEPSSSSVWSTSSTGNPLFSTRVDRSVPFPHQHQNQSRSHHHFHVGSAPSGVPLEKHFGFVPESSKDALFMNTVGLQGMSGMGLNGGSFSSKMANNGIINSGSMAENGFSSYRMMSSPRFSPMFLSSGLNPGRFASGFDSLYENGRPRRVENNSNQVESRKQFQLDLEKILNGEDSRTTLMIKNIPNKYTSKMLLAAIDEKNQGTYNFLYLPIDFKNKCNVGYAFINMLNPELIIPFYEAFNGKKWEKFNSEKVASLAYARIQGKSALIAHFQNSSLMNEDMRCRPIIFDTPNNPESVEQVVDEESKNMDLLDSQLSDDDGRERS

B1: AN, Renilla luciferase fusion (LUMIER) (natural protein, Arabidopsis thaliana, UniProt O23702 1-636, looked up)
chain: MSKIRSSATMPHRDQPSPASPHVVTLNCIEDCALEQDSLAGVAGVEYVPLSRIADGKIESATAVLLHSLAYLPRAAQRRLRPHQLILCLGSADRAVDSTLAADLGLRLVHVDTSRAEEIADTVMALILGLLRRTHLLSRHALSASGWLGSLQPLCRGMRRCRGMVLGIVGRSVSARYLASRSLAFKMSVLYFDVPEGDEERIRPSRFPRAARRMDTLNDLLAASDVISLHCALTNDTVQILNAECLQHIKPGAFLVNTGSCQLLDDCAVKQLLIDGTIAGCALDGAEGPQWMEAWVKEMPNVLILPRSADYSEEVWMEIREKAISILHSFFLDGVIPSNTVSDEEVEESEASEEEEQSPSKHEKLAIVESTSRQQGESTLTSTEIVRREASELKESLSPGQQHVSQNTAVKPEGRRSRSGKKAKKRHSQQKYMQKTDGSSGLNEESTSRRDDIAMSDTEEVLSSSSRCASPEDSRSRKTPLEVMQESSPNQLVMSSKKFIGKSSELLKDGYVVALYAKDLSGLHVSRQRTKNGGWFLDTLSNVSKRDPAAQFIIAYRNKDTVGLRSFAAGGKLLQINRRMEFVFASHSFDVWESWSLEGSLDECRLVNCRNSSAVLDVRVEILAMVGDDGITRWID
notes: ANGUSTIFOLIA (AN), Arabidopsis thaliana, AT1G01510; CDS amplified from Col-0 cDNA; in the dimerisation test the second copy must have been the N-terminal protein A fusion (surmised from the LUMIER format); also called wild-type AN; source: HEK293TN cells, transfected; not shown: Renilla reniformis luciferase, N-terminal, kept
Question: B1 was tested. Which “fold change from background” value [1] did it give?
Answer: 4.92 fold

Question: What about the percentage pulldown [1] of the same binder?
Answer: 0.47%

Question: And the “fold change from background” value [2]?
Answer: 5.25 fold

Question: And the percentage pulldown [2]?
Answer: 0.5%

Question: What about the “fold change from background” value [3] of the same binder?
Answer: 5.04 fold

Question: What about the percentage pulldown [3] of the same binder?
Answer: 0.47%

Reference: PMC5469197, “ANGUSTIFOLIA, a Plant Homolog of CtBP/BARS Localizes to Stress Granules and Regulates Their Formation” (Frontiers in Plant Science, 2017)
